Article PMC4114212 (Science signaling, 2012)
Like-named read-outs stand apart in the source and are kept apart here. One block for each binder: values may come before it.

Experiments:
[1] = molecular target: the molecule itself; assay: crystal structure
[2] = molecular target: T1, Cardif peptide (residues 138 to 158) used for cocrystallization with TRAF3; assay: crystal structure
T1 peptide: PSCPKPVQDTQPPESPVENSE

[3] = molecular target: the molecule itself; assay: crystal structure; remark: listed apart in the source
[4] = molecular target: T2, TRAF domain of mouse TRAF3 (residues 376 through the C terminus), wild type (mouse, UniProt Q60803 376-567); assay: pull-down
T2 sequence (looked up): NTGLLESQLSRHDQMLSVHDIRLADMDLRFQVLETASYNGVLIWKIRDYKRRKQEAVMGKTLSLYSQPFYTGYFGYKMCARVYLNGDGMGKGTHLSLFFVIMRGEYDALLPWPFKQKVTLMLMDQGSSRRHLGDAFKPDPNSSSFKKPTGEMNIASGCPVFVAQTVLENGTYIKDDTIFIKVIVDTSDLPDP

B1: TRAF domain of TRAF5, crystallised construct (residues 381 through the C-terminal end) (domain or fragment, mouse, UniProt P70191 381-558, looked up)
chain: NIHKAQLNKNEERFKQLEGACYSGKLIWKVTDYRVKKREAVEGHTVSVFSQPFYTSRCGYRLCARAYLNGDGSGKGTHLSLYFVVMRGEFDSLLQWPFRQRVTLMLLDQSGKKNHIVETFKADPNSSSFKRPDGEMNIASGCPRFVSHSTLENSKNTYIKDDTLFLKVAVDLTDLEDL
stoichiometry N [1]: 3

stoichiometry N [2]: 1
B2: recombinant TRAF domain of TRAF3 (residues 376 to 565), shortened by trypsin for crystallisation (domain or fragment, mouse, UniProt Q60803 376-565, looked up)
chain: NTGLLESQLSRHDQMLSVHDIRLADMDLRFQVLETASYNGVLIWKIRDYKRRKQEAVMGKTLSLYSQPFYTGYFGYKMCARVYLNGDGMGKGTHLSLFFVIMRGEYDALLPWPFKQKVTLMLMDQGSSRRHLGDAFKPDPNSSSFKKPTGEMNIASGCPVFVAQTVLENGTYIKDDTIFIKVIVDTSDLP
stoichiometry N [3]: 3

binding result [4]: binds
Binder: PSCPKPVQDTQPPESP [GST-tagged Cardif peptide, residues 138 to 153 (encompasses T2BM)]
